Measurements taken from patent US20030003563, “Method of using a crystal of the N-terminal domain of a signal transducer and activator of transcription” (published 2003).

Tests used:
[1] = target: STAT-1alpha W37A (Tyr-phosphorylated) (Homo sapiens, UniProt P42224 P42224:2-750, W37A); test: EMSA; used to titrate active protein; conditions: tags: C-terminal 6xHis; baculovirus insect cells; chain copies: 2 (dimer; stated)
From the text: (§1) Gel shift experiments and determination of tetramer stability were done as described [Vinkemeier et al., EMBO J. 15:5616 (1996)] with an oligonucleotide containing two copies of the STAT recognition element from the c-fos gene [Wagner et al., EMBO J. 9:4477 (1990)] spaced by 10 base pairs (5′-[…]-3′). Both protein preparations (Tyr-phosphorylated wild type STAT-1α and W37A mutant) were titrated in gel shift experiments with an oligonucleotide containing a single M67 site (5′-[…]-3′) [Wagner et al., EMBO J. 9:4477 (1990)] to assure similar loading of active protein. […] The time necessary to reach equilibrium was assessed by EMSA [(Stone et al., in Jost, J. P. & Saluz, H. P. (eds.) A Laboratory Guide to In Vitro Studies of Protein-DNA Interactions BioMethods, vol.5:163-195 (1991)]. For all DNA fragments tested, equilibrium turned out to be fully established at the earliest timepoint that can be determined by this technique (30 sec). Therefore incubation periods of 5-15 minutes were chosen. Reaction products were loaded onto a 4% polyacrylamide gel (1.5 mm thick) containing 0.25× Tris-borate-EDTA which had been pre-run at 20V/cm for 2 hours at 4° C. Electrophoresis was continued for 60 minutes at 4° C. Gels were dried and exposed to X-ray film and quantitated by a Molecular Dynamics Phospholmager.

[2] = target: STAT-1alpha (Tyr-phosphorylated, wild type) (Homo sapiens, UniProt P42224 P42224:2-750); test: EMSA; used to titrate active protein; conditions: tags: in vitro Tyr-phosphorylated with EGF-receptor kinase; chain copies: 4 (two dimers on tandem site; stated)
Chain of STAT-1alpha (Tyr-phosphorylated, wild type) (P42224 2-750, one chain of several): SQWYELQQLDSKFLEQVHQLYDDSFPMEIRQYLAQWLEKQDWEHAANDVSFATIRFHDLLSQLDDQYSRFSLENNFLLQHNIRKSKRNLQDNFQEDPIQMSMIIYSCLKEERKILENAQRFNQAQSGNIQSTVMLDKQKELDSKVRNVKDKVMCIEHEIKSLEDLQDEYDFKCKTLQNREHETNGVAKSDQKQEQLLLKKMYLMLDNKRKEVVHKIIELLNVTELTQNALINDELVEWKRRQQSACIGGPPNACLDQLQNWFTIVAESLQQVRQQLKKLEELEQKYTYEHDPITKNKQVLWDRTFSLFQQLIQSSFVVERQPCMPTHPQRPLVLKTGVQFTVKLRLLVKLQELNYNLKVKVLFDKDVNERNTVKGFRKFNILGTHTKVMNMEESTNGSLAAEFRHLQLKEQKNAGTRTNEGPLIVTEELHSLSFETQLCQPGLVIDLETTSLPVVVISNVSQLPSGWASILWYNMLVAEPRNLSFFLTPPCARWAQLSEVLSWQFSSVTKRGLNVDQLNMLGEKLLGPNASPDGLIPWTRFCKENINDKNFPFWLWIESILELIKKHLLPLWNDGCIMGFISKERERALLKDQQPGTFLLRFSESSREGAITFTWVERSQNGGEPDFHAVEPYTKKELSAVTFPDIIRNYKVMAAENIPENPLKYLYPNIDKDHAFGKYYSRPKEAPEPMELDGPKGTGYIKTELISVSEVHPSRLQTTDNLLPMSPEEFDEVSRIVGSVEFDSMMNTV
From the text: as §1

[3] = target: STAT-1alpha wild type (transfected, U3A cells) (Homo sapiens, UniProt P42224 P42224:2-750); test: cell_activity; IFN-gamma 5 ng/ml, 10 h, luciferase in U3A cells; conditions: tags: pcDNA3 expression
Chain of STAT-1alpha wild type (transfected, U3A cells) (P42224 2-750, one chain of several): as above
Protocol: FIG. 4B show the effect of STAT-1 W37A mutation on interferon-γ (IFN-γ) stimulated gene activation in vivo. U3A cells that are lacking STAT-1 [Miller et al., EMBO J. 12:4221 (1993)] were transfected with expression clones containing either wild type or mutant STAT-1 (see Methods of the EXAMPLE, below) along with a luciferase reporter containing a tandem STAT binding site as an enhancer. After stimulation with IFN-γ for 10 hours, luciferase expression was determined spectroscopically (represented as bars). Cells transfected with the wild type protein show an about 2-fold increase in luciferase expression. […] Each bar represents ten individual parallel experiments. Error bars denote standard deviation from the mean.
Transient transfections were performed on six well plates with 50% confluent U3A cells using the calcium phosphate method as instructed by the manufacturer (Stratagene) with the following modifications. Transfection reactions contained per well 4.5 μg of either wild type STAT-1α or the W37A mutant in plasmid pcDNA3 (Invitrogen), 4 μg luciferase reporter plasmid pLuc, and 0.4 μg β-galactosidase reporter plasmid (Stratagene).
The luciferase reporter contained in its BamH1 site as an enhancer element two tandemly arranged “weak” STAT-1 binding sites (5′-[…]-3′, binding sites underlined) from the human c-fos promoter. […]

Chain of STAT-1alpha W37A (Tyr-phosphorylated) (P42224 2-750 W37A, one chain of several): as the sequence (P42224 2-750, one chain of several) above, with W36A counted along it

B1: single M67 site (dsDNA)
DNA 1: GCCGATTTCCCGTAAATCAT
DNA 2: ATGATTTACGGGAAATCGGC
- binding result [1]: binds
- binding result [2]: binds

B2: luciferase reporter enhancer with two weak STAT-1 sites (dsDNA)
DNA 1: GATCAGTTCCCGTCAATCATGATCCAGTTCCCGTCAATGATCCCCGGGATC
DNA 2: GATCCCGGGGATCATTGACGGGAACTGGATCATGATTGACGGGAACTGATC
- activity [3]: ~2 fold induction
